Assay [1] deals with T1, recombinant human factor B (human, UniProt P00751 26-764, biotinylated (EZ-link) in the Octet assay only; sites not stated).
T1 construct: also called purified factor B protein
The experiment in a line: dilution ELISA, factor B coated at 25 ng/well [upper panel]. A general note: An ELISA detects its analyte on a solid surface through an enzyme-linked reagent.

Assay [2] deals with T1, recombinant human factor B. The experiment in a line: dilution ELISA, factor B coated at 50 ng/well [upper panel].
Assay [3] deals with T1, recombinant human factor B. The experiment in a line: BLI (ForteBio Octet), biotinylated human factor B on neutravidin sensors, Fab' at 1e-7 M. The method, then: (§1) Binding kinetics of the Fab′ fragments were analyzed using a FortéBio® Octet® biosensor (FortéBio, Inc., Menlo Park, Calif.). Recombinant human factor B was biotinylated with the EZ-link biotinylation system (Pierce Biotechnology, Rockford, Ill.) according to the manufacturer's instructions. The antigen was then coupled to neutravidin-coated sensors (FortéBio, Inc., Menlo Park, Calif.) according to the manufacturer's instructions. Fab′ binding was then monitored in real time using bio-layer interferometry analysis and software provided by the manufacturer. Antigen binding affinities were calculated for the tested Fab′ fragments based on the measured association (“Kassoc”) and dissociation (“Kdissoc”) constants. Preferably humaneered antibodies or antibody fragments with equilibrium dissociation constants the same or […] than that of the reference antibody (i.e., mAb 1379) or antibody fragment (i.e., TA10).
(§2) Fully humaneered Fab′ fragments were isolated by colony lift binding assays and confirmed as factor B binders by ELISA. Humaneered Fab′ fragments showing strong positive signals by ELISA were purified and further characterized in comparison to the reference Fab′ fragment TA10, which has murine V-region sequences from mAb 1379. Kinetics of Fab′ fragment binding to recombinant human factor B were analyzed with the FortéBio® Octet® system by bio-layer interferometry, providing real time label-free monitoring of protein-protein interactions. Measured association (Kassoc) and dissociation (Kdissoc) constants, and calculated equilibrium dissociation constants (KD=Kdissoc/Kassoc) (i.e., binding affinity), are shown in Table 1.
(Biolayer interferometry detects binding as a change in optical thickness at a sensor tip.)

Assay [4] deals with T1, recombinant human factor B. The experiment in a line: BLI (ForteBio Octet), biotinylated human factor B on neutravidin sensors, Fab' at 1e-7 M; KD = Kdissoc/Kassoc. The method, then: as §1, §2
Assay [5] concerns the target T1, recombinant human factor B. The experiment in a line: dilution ELISA, factor B coated at 25 ng/well [lower panel]. The procedure:
(§3) Next, the ability of the cloned VH and Vκ sequences to bind factor B was assayed. The cloned VH- and Vκ-regions were expressed in bacteria as Fab′ fragments, purified, and tested for binding to factor B in a dilution ELISA. FIG. 4 compares factor B binding of the cloned Fab′ TA003 to that of a Fab′ derived from mAb1379. As expected, both the cloned Fab′ and murine Fab produced binding curves that were dependent on both antibody and antigen concentration.

Assay [6] has as its target T1, recombinant human factor B. The experiment in a line: dilution ELISA, factor B coated at 100 ng/well [lower panel]. The procedure:
as §3

Assay [7] has as its target T1, recombinant human factor B. The experiment in a line: dilution ELISA, factor B coated at 50 ng/well [lower panel]. The procedure:
as §3

The source of these data is patent publication US20130216529A1 (TALIGEN THERAPEUTICS, published 2013).

Where a chain is given by its changes, count along the chain named.

T1 sequence (P00751 26-764): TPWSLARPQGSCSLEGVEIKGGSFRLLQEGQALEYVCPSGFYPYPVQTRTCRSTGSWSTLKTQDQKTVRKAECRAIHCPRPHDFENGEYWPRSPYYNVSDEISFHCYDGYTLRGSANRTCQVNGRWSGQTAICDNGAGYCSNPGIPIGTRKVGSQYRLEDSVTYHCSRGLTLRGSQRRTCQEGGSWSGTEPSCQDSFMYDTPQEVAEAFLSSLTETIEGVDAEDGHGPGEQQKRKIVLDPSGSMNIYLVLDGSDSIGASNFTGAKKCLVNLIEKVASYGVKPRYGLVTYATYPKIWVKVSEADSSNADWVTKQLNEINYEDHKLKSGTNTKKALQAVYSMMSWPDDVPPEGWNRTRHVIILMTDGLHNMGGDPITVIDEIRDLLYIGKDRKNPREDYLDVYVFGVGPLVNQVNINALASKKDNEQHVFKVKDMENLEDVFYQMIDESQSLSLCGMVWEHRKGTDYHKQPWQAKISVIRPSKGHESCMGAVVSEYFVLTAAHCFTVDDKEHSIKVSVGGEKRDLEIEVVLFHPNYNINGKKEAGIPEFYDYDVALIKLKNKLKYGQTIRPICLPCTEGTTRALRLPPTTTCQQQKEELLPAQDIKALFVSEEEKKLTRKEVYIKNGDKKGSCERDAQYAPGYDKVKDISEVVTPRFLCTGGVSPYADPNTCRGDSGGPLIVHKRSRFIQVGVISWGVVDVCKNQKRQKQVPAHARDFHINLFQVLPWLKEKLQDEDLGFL

B1: cloned Fab' TA003 (Fab, V domains shown)
VH: EVQLQQSGPELVKPGASVKIPCKASGYTFTDYNMDWVKQSHGKSLEWIGDINPNNGGTIYNQKFKGKATLTVDKSSSTAYMELRSLTSEDTAVYYCARGYYSNSAWFAYWGQGTLVTVSA
VL: DIVMSQSPSSLAVSAGEKVTMSCKSSQSLLNSRTRKNYLAWYQQKPGQSPKLLIYWASTRESGVPDRFTGSGSGTDFTLTISSVQAEDLAVYYCKQSYNLPWTFGGGTKLEIKR
notes: No sentence ties the name TA003 to these numbers directly; also called the cloned Fab'; purified Fab' protein (cloned V-regions from the hybridoma producing mAb 1379)
As usually defined, the EC50 (read off the curve) is the concentration that produces a half-maximal response. In the case of B1, the “EC50 (read off the curve)” value in assay [1] was approximately 40 nM; in assay [2] it was approximately 20 nM.

B2: TA10 reference Fab' (Fab, V domains shown)
VH: B1 VH with A120S
VL: DIVMSQSPSSLAVSAGEKVTMSCKSSQSLLNSRTRKNYLAWYQQKPGQSPKLLIYWASTRESGVPDRFTGSGSGTDFTLTISSVQAEDLAVYYCKQSYNLPWTFGQGTKLEIK
In general, koff refers to the first-order rate constant of dissociation. Usually Kd stands for a measure of binding affinity in units of concentration. Turning to B2, in assay [3], the koff was determined as 0.00296 s⁻¹. Besides, the Kd in assay [4] was found to be 6.55 nM.

B3: Fab' derived from mAb 1379 by papain digestion (Fab, V domains shown)
VH: B1 VH
VL: B1 VL
notes: Papain fragment of the murine IgG1 kappa hybridoma antibody mAb 1379 (ATCC PTA-6230); also called murine Fab
Turning to B3, the “EC50 (read off the curve)” value in assay [5] was approximately 30 nM; in assay [6], approximately 8 nM; in assay [7] it was approximately 10 nM.

B4: TA103-2 Fab' (Fab, V domains shown)
VH: QVQLVQSGAEVKKPGASVKVSCKASGYSFTDYYMTWVRQAPGQGLEWMGWINPNSGGTKYAQKFQGRVTMTRDTSISTAYMELSRLRSDDTAVYYCARGYYANSAWFAYWGQGTLVTVSS
VL: DIVMTQSPDSLAVSLGERATINCKSSQSLLNSRTSKNYLAWYQQKPGQPPKLLIYWASTRESGVPDRFSGSGSGTDFTLTISSLQAEDVAVYYCKQVYNLPWTFGQGTKLEIK
notes: Humaneered Fab' expressed in E. coli
With B4, in assay [3], the dissociation rate constant (koff) came out at 0.0028 s⁻¹. Moreover, the Kd in assay [4] came to 3.73 nM.

B5: TA101-1 Fab' (Fab, V domains shown)
VH: B4 VH
VL: B4 VL with R33S
notes: as for B4
Consider B5, for which the dissociation rate constant (koff) in assay [3] was determined as 0.00233 s⁻¹. The Kd in assay [4] was 4.53 nM.

B6: TA102-4 Fab' (Fab, V domains shown)
VH: B4 VH
VL: B4 VL with L29V, T34N, S35K
notes: as for B4
One may read the kon as a measure of how fast the partners come together. B6: in assay [3], the dissociation rate constant (koff) is 0.00437 s⁻¹ and the on-rate constant (kon) was found to be 810000 M⁻¹ s⁻¹. Also, the Kd in assay [4] was determined as 5.4 nM.
